Test results reported in patent US20060105442, “Promoters and proteins from Clostridium thermocellum and uses thereof” (published 2006).

Target: T1, rGlyR3 (CelR3) (Clostridium thermocellum)
T1 chain: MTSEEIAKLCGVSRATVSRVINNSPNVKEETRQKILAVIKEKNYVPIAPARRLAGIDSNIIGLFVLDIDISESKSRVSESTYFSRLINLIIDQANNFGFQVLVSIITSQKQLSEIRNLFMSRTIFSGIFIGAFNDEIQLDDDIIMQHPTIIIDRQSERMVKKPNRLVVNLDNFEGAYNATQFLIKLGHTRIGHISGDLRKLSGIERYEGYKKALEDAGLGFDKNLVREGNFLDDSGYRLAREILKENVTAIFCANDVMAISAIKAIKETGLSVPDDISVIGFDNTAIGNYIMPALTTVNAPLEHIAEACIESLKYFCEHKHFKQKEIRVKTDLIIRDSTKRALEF
Assay: EMSA; dose dependent; inhibited by laminaribiose

B1: 18 bp GlyR3 binding site (dsDNA)
DNA 1: AATGAACGCGCGTACATT
DNA 2: AATGTACGCGCGTTCATT
- binding result: binds
